In US10253089B2, “Matrix metalloproteinase cleavable protein polymers for cancer gene therapy” (The University of Utah Research Foundation, priority 2012, dated 2019):

Key:
[1] = 12 week subchronic toxicity study; type: in vivo, CD-1 immunocompetent mice
Description: Mice were anesthetized and maintained under anesthesia with 3% isofluorane in oxygen. After shaving and cleaning the injection site with 60% isopropanol, mice were subcutaneously injected in the right flank with 50 μl of solution using a 250 μl Hamilton syringe with a 26G needle. […] The injection site was gently clamped for 10 seconds to prevent leakage, after which mice were returned to their cages. For consistency, the day of viral injection was defined as day 0.
For treatment groups, a suspension of 1 mg GCV (Sigma Aldrich, St. Louis, Mo.) per ml of 0.9% physiological saline was prepared and sterilized through a 0.22 μm filter. Each day, animal weights were recorded, injection sites cleaned with 60% isopropanol, and mice injected i.p. with 1 mg/ml GCV suspension through a 26G needle sufficient for a total dose of 25 mg/kg body weight. Average dosing volume for these studies was approximately 0.6 ml. Mice were injected daily for the first four weeks of the 12 week recovery study, and for the entirety of the 1, 2, and 4 week studies.
The results for the 12 week subchronic toxicity study (FIG. 18) reveal many interesting points about SELP and its ability to improve the Ad.HSVtk/GCV toxicity profile. […]

[2] = test system: JHU-022 head and neck cancer xenografts; experiment: Quantitative viral gene expression (β-gal) in vivo, tumor and liver; set-up: species or system athymic nude (nu/nu) mice; conditions: 4 wt %
Description: Head and neck cancer xenografts were established by subcutaneously injecting 2×10^6 JHU-022 cells suspended in 200 μl Phosphate Buffer Saline (PBS) bilaterally in the flank of athymic nude (nu/nu) mice. Tumors were allowed to grow for two weeks to reach an average diameter of 7 mm. […] Virus-polymer solutions were prepared by thawing SELP and virus stocks and mixing them gently with physiological saline. Mice were anesthetized using 4 wt % isofluorane mixed with oxygen, and intratumorally injected with 25 μl of the polymer-virus solutions using a Hamilton syringe. Mice were euthanized on days 7, 14, and 21 and tumor and liver tissue were isolated. CPRG β-gal colorimetric assays were performed as described previously in the scientific literature. […] Recovered tissue lysates were then centrifuged for 45 minutes at 14,000 rpm and, subsequently, upper aqueous layers were used for β-gal quantification. […]
Polymer structures and compositions that formed robust hydrogels were selected for matrix-mediated delivery of reporter genes in a murine model of HNSCC. […] Animals were sacrificed at days 7, 14, and 21 for analysis of gene expression, and analyzed using a colorimetric tissue lysate assay for β-galactosidase. […]

[3] = Dynamic mechanical analysis (DMA) of SELP hydrogels; type: physicochemical; conditions: 12 wt % hydrogels
From the text: It was predicted that polymer structure would also play a large role in the mechanical properties of the hydrogels. Dynamic mechanical analysis (DMA) was used to examine hydrogels made from each of the SELP analogues, and as predicted, there was a strong dependence of the results on the silk and elastin content of the polymers, and the arrangement of the silk and elastin blocks. […] This is opposite the order observed in the swelling studies, which is to be expected assuming the crosslinking density decreases with increasing swelling and decreasing mechanical properties for analogous materials. The legend for the graph shown in FIG. 8 is as follows: triangles: SELP-47K, squares: SELP-815K, diamonds: SELP-415K. Highly controlled structure in SELPs allows fine-tuning of mechanical properties.
To gain further insight into the hydrogel pore structure, network properties were examined as a function of polymer sequence by small angle neutron scattering (SANS) techniques (FIG. 9). SANS allows the examination of microstructures in the range 1-100 nm through the analysis of elastic neutron scattering. […] The calculated correlation length (Table 3) depicts a trend in the observation that are in the order SELP-415K>SELP-815K>SELP-47K. […]

B1: SELP815K: silk-elastin-like protein polymer, longer silk units, fifteen elastin units, lysine elastin unit; monomer repeated 6 times (SEQ ID NO. 21) (protein)
chain: MDPVVLQRRDWENPGVTQLNRLAAHPPFASDPMGAGSGAGAGSGAGAGSGVGVPGVGVPGVGVPGVGVPGKGVPGVGVPGVGVPGVGVPGVGVPGVGVPGVGVPGVGVPGVGVPGVGVPGVGVPGVGVPGAGAGSGAGAGSGAGAGSGAGAGSGAGAGSGAGAGAGSGAGAGSGAGAGSGVGVPGVGVPGVGVPGVGVPGKGVPGVGVPGVGVPGVGVPGVGVPGVGVPGVGVPGVGVPGVGVPGVGVPGVGVPGVGVPGAGAGSGAGAGSGAGAGSGAGAGSGAGAGSGAGAGAGSGAGAGSGAGAGSGVGVPGVGVPGVGVPGVGVPGKGVPGVGVPGVGVPGVGVPGVGVPGVGVPGVGVPGVGVPGVGVPGVGVPGVGVPGVGVPGAGAGSGAGAGSGAGAGSGAGAGSGAGAGSGAGAGAGSGAGAGSGAGAGSGVGVPGVGVPGVGVPGVGVPGKGVPGVGVPGVGVPGVGVPGVGVPGVGVPGVGVPGVGVPGVGVPGVGVPGVGVPGVGVPGAGAGSGAGAGSGAGAGSGAGAGSGAGAGSGAGAGAGSGAGAGSGAGAGSGVGVPGVGVPGVGVPGVGVPGKGVPGVGVPGVGVPGVGVPGVGVPGVGVPGVGVPGVGVPGVGVPGVGVPGVGVPGVGVPGAGAGSGAGAGSGAGAGSGAGAGSGAGAGSGAGAGAGSGAGAGSGAGAGSGVGVPGVGVPGVGVPGVGVPGKGVPGVGVPGVGVPGVGVPGVGVPGVGVPGVGVPGVGVPGVGVPGVGVPGVGVPGVGVPGAGAGSGAGAGSGAGAGSGAGAGSGAGAGSGAGAMDPGRYQDLRSHHHHHH
modifications: monomer repeated 6 times; Hybrid of Homo sapein and Bombyx mori
toxicity conclusion of the statistical comparison ([1]; 12 week study, comparison named in the table line): SELP itself is not toxic in | p (ANOVA and Bonferroni post-test) Vs Control ([1]; 12 week subchronic toxicity study): p > .05 | tumor transfection (β-gal) compared to free virus ([2]; Ad.CMV.LacZ 5×10^8 PFU intratumoral, week one): more than 50 fold | difference in tumor vs. liver transfection ([2]; Ad.CMV.LacZ, week two): 55 fold | storage modulus [3]: falls between those of SELP47K and 415K
